According to ChEMBL document CHEMBL2073772, “Primary active transport of organic anions on bile canalicular membrane in humans” (Am J Physiol, 1999):

Columns and labels:
[1] = target: ATP-binding cassette sub-family C member 2 (Homo sapiens, UniProt Q92887); experiment: (§1) TP_TRANSPORTER: uptake in bile canalicular membrane vesicles; assay type: functional, cell membranes, Bile canalicular membrane vesicle
[2] = substrate: CNc1nc2c(Cc3cccnc3)c(C)c(O[C@@H]3O[C@H](C(=O)O)[C@@H](O)[C@H](O)[C@H]3O)c(C)c2s1; experiment: as §1; assay type: functional, cell membranes, Homo sapiens, Bile canalicular membrane vesicle
[3] = substrate: N[C@@H](CCC(=O)N[C@H](CSc1ccc([N+](=O)[O-])cc1[N+](=O)[O-])C(=O)NCC(=O)O)C(=O)O; experiment: as §1; assay type: functional, cell membranes, Homo sapiens, Bile canalicular membrane vesicle

Molecule | Activity [1] | Km [2] [µM] | Km [3] [µM]
Cc1c(F)c(N2CCNC(C)C2)cc2c1c(=O)c(C(=O)O[C@@H]1O[C@H](C(=O)O)[C@@H](O)[C@H](O)[C@H]1O)cn2C1CC1 (stereo partly drawn) [GREPAFLOXACIN GLUCURONIDE] | substrate [+] |  | 
ATP-binding cassette sub-family C member 2 (Homo sapiens) (protein) MLEKFCNSTFWNSSFLDSPEADLPLCFEQTVLVWIPLGYLWLLAPWQLLHVYKSRTKRSSTTKLYLAKQVFVGFLLILAAIELALVLTEDSGQATVPAVRYTNPSLYLGTWLLVLLIQYSRQWCVQKNSWFLSLFWILSILCGTFQFQTLIRTLLQGDNSNLAYSCLFFISYGFQILILIFSAFSENNESSNNPSSIASFLSSITYSWYDSIILKGYKRPLTLEDVWEVDEEMKTKTLVSKFETHMKRELQKARRALQRRQEKSSQQNSGARLPGLNKNQSQSQDALVLEDVEKKKKKSGTKKDVPKSWLMKALFKTFYMVLLKSFLLKLVNDIFTFVSPQLLKLLISFASDRDTYLWIGYLCAILLFTAALIQSFCLQCYFQLCFKLGVKVRTAIMASVYKKALTLSNLARKEYTVGETVNLMSVDAQKLMDVTNFMHMLWSSVLQIVLSIFFLWRELGPSVLAGVGVMVLVIPINAILSTKSKTIQVKNMKNKDKRLKIMNEILSGIKILKYFAWEPSFRDQVQNLRKKELKNLLAFSQLQCVVIFVFQLTPVLVSVVTFSVYVLVDSNNILDAQKAFTSITLFNILRFPLSMLPMMISSMLQASVSTERLEKYLGGDDLDTSAIRHDCNFDKAMQFSEASFTWEHDSEATVRDVNLDIMAGQLVAVIGPVGSGKSSLISAMLGEMENVHGHITIKGTTAYVPQQSWIQNGTIKDNILFGTEFNEKRYQQVLEACALLPDLEMLPGGDLAEIGEKGINLSGGQKQRISLARATYQNLDIYLLDDPLSAVDAHVGKHIFNKVLGPNGLLKGKTRLLVTHSMHFLPQVDEIVVLGNGTIVEKGSYSALLAKKGEFAKNLKTFLRHTGPEEEATVHDGSEEEDDDYGLISSVEEIPEDAASITMRRENSFRRTLSRSSRSNGRHLKSLRNSLKTRNVNSLKEDEELVKGQKLIKKEFIETGKVKFSIYLEYLQAIGLFSIFFIILAFVMNSVAFIGSNLWLSAWTSDSKIFNSTDYPASQRDMRVGVYGALGLAQGIFVFIAHFWSAFGFVHASNILHKQLLNNILRAPMRFFDTTPTGRIVNRFAGDISTVDDTLPQSLRSWITCFLGIISTLVMICMATPVFTIIVIPLGIIYVSVQMFYVSTSRQLRRLDSVTRSPIYSHFSETVSGLPVIRAFEHQQRFLKHNEVRIDTNQKCVFSWITSNRWLAIRLELVGNLTVFFSALMMVIYRDTLSGDTVGFVLSNALNITQTLNWLVRMTSEIETNIVAVERITEYTKVENEAPWVTDKRPPPDWPSKGKIQFNNYQVRYRPELDLVLRGITCDIGSMEKIGVVGRTGAGKSSLTNCLFRILEAAGGQIIIDGVDIASIGLHDLREKLTIIPQDPILFSGSLRMNLDPFNNYSDEEIWKALELAHLKSFVASLQLGLSHEVTEAGGNLSIGQRQLLCLGRALLRKSKILVLDEATAAVDLETDNLIQTTIQNEFAHCTVITIAHRLHTIMDSDKVMVLDNGKIIECGSPEELLQIPGPFYFMAKEAGIENVNSTKF |  | 14.1 | 193
